Measured values from paper doi:10.1101/2021.01.05.425367 (bioRxiv, 2021).

Target: T1, LolB-Strep (E. coli, UniProt P61320 22-207)
T1 sequence (looked up): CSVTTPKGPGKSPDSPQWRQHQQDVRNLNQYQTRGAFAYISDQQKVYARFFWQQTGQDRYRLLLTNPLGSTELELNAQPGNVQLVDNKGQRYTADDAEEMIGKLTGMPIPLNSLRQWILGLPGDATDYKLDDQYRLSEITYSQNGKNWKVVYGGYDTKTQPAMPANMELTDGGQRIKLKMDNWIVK
Assay: pull-down

B1: wild-type RcsF (natural protein, E. coli, UniProt P69411 16-134, looked up)
chain: CSMLSRSPVEPVQSTAPQPKAEPAKPKAPRATPVRIYTNAEELVGKPFRDLGEVSGDSCQASNQDSPPSIPTARKRMQINASKMKANAVLLHSCEVTSGTPGCYRQAVCIGSALNITAK
modifications: acylated (lipidated) N-terminal cysteine, the first residue of the mature lipoprotein
  binding result: binds
